# Measurements published in publication PMC10995199, “Architecture and regulation of filamentous human cystathionine beta-synthase” (Nature Communications, 2024).
# B1: human cystathionine beta-synthase catalytic domain alone (CBS^CD, residues 1–413) (domain or fragment, UniProt P35520 1-413, looked up)
# chain: MPSETPQAEVGPTGCPHRSGPHSAKGSLEKGSPEDKEAKEPLWIRPDAPSRCTWQLGRPASESPHHHTAPAKSPKILPDILKKIGDTPMVRINKIGKKFGLKCELLAKCEFFNAGGSVKDRISLRMIEDAERDGTLKPGDTIIEPTSGNTGIGLALAAAVRGYRCIIVMPEKMSSEKVDVLRALGAEIVRTPTNARFDSPESHVGVAWRLKNEIPNSHILDQYRNASNPLAHYDTTADEILQQCDGKLDMLVASVGTGGTITGIARKLKEKCPGCRIIGVDPEGSILAEPEELNQTEQTTYEVEGIGYDFIPTVLDRTVVDKWFKSNDEEAFTFARMLIAQEGLLCGGSAGSTVAVAVKAAQELQEGQRCVVILPDSVRNYMTKFLSDRWMLQKGFLKEEDLTEKKPWWWHLR
# notes: source: E. coli Rosetta (DE3), purified
# Molecular target: the molecule itself
# Test: SEC + native gel or EMSA; control constructs in analytical Superose 6 gel filtration and clear-native and blue-native PAGE (Supplementary Fig. 2); self-association
protein,measurement,value
B1,stoichiometry N,2
